To fix the notation:
T1: rat calcitonin receptor (rat, UniProt P32214 25-516)
T1 construct: whole, on cells; Membranes of transiently transfected BHK tk'ts 13 cells (Assay VIII); also called rCTR
T1 sequence (looked up): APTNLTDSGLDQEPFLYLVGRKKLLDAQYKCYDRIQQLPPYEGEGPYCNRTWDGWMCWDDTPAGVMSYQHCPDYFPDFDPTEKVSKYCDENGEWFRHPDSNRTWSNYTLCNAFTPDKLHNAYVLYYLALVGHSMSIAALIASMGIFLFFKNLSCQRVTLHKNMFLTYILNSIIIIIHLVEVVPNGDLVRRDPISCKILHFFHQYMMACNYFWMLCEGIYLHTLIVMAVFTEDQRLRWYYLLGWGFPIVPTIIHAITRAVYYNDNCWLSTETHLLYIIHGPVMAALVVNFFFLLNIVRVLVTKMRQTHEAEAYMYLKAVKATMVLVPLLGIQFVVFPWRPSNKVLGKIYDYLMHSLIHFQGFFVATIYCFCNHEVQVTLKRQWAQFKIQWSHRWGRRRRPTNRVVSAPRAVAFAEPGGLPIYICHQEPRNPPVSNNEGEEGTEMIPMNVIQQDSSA

T2: human calcitonin receptor (human, UniProt P30988 25-474)
T2 construct: whole, on cells; Membranes of a stably transfected BHK cell line (Assay VII); also called hCTR; hCT
T2 sequence (looked up): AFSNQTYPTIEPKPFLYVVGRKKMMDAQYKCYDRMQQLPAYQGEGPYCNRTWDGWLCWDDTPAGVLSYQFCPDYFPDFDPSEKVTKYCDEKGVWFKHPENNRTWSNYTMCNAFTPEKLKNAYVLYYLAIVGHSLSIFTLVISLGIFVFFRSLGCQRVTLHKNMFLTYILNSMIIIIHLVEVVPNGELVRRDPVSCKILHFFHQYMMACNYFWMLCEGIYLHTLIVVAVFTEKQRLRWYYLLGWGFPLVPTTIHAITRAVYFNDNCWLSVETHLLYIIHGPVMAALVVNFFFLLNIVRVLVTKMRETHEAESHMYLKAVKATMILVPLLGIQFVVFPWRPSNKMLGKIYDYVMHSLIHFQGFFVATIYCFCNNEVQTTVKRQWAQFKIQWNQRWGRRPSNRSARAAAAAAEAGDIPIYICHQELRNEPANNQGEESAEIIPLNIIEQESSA

T3: rat amylin receptor (rat calcitonin receptor + rat RAMP 3) (rat, UniProt P32214 25-516; Q9JJ73 23-147)
T3 construct: whole, on cells; Membranes of transiently transfected BHK tk'ts 13 cells (Assay VI); also called rAmylin-R; rat amylin 3(a) receptor
T3 sequence (looked up) 1: T1 sequence (looked up)
T3 sequence (looked up) 2: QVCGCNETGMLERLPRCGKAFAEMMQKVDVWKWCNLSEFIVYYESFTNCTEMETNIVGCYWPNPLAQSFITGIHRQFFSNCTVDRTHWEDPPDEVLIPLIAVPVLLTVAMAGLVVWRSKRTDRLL

B1: N^ε1-[(4S)-4-carboxy-4-[[(4S)-4-carboxy-4-(19-carboxynonadecanoylamino)butanoyl]amino]butanoyl]-[Glu14,Arg17,Pro21,Pro27,His34]-h-amylin (peptide)
peptide: K([γGlu-γGlu-C20 diacid])CNTATCATQRLAEFLRHSSPNFGAIPSSTNVGHNTY-NH2
modifications: disulfide 2-7; N-terminus assumed
SMILES: CC[C@H](C)[C@H](NC(=O)[C@H](C)NC(=O)CNC(=O)[C@H](Cc1ccccc1)NC(=O)[C@H](CC(N)=O)NC(=O)[C@@H]1CCCN1C(=O)[C@H](CO)NC(=O)[C@H](CO)NC(=O)[C@H](Cc1c[nH]cn1)NC(=O)[C@H](CCCNC(=N)N)NC(=O)[C@H](CC(C)C)NC(=O)[C@H](Cc1ccccc1)NC(=O)[C@H](CCC(=O)O)NC(=O)[C@H](C)NC(=O)[C@H](CC(C)C)NC(=O)[C@H](CCCNC(=N)N)NC(=O)[C@H](CCC(N)=O)NC(=O)[C@@H](NC(=O)[C@H](C)NC(=O)[C@@H]1CSSC[C@H](NC(=O)[C@@H](N)CCCCNC(=O)CC[C@H](NC(=O)CC[C@H](NC(=O)CCCCCCCCCCCCCCCCCCC(=O)O)C(=O)O)C(=O)O)C(=O)N[C@@H](CC(N)=O)C(=O)N[C@@H]([C@@H](C)O)C(=O)N[C@@H](C)C(=O)N[C@@H]([C@@H](C)O)C(=O)N1)[C@@H](C)O)C(=O)N1CCC[C@H]1C(=O)N[C@@H](CO)C(=O)N[C@@H](CO)C(=O)N[C@H](C(=O)N[C@@H](CC(N)=O)C(=O)N[C@H](C(=O)NCC(=O)N[C@@H](Cc1c[nH]cn1)C(=O)N[C@@H](CC(N)=O)C(=O)N[C@H](C(=O)N[C@@H](Cc1ccc(O)cc1)C(N)=O)[C@@H](C)O)C(C)C)[C@@H](C)O
notes: also called compound 87
B2: N^ε1-[2-[2-[2-(19-carboxynonadecanoylamino)ethoxy]ethoxy]acetyl]-[His14,Arg17,Pro21,Pro27]-h-amylin (peptide)
peptide: K([AEEA-C20 diacid])CNTATCATQRLAHFLRHSSPNFGAIPSSTNVGSNTY-NH2
modifications: disulfide 2-7; N-terminus assumed
SMILES: CC[C@H](C)[C@H](NC(=O)[C@H](C)NC(=O)CNC(=O)[C@H](Cc1ccccc1)NC(=O)[C@H](CC(N)=O)NC(=O)[C@@H]1CCCN1C(=O)[C@H](CO)NC(=O)[C@H](CO)NC(=O)[C@H](Cc1c[nH]cn1)NC(=O)[C@H](CCCNC(=N)N)NC(=O)[C@H](CC(C)C)NC(=O)[C@H](Cc1ccccc1)NC(=O)[C@H](Cc1c[nH]cn1)NC(=O)[C@H](C)NC(=O)[C@H](CC(C)C)NC(=O)[C@H](CCCNC(=N)N)NC(=O)[C@H](CCC(N)=O)NC(=O)[C@@H](NC(=O)[C@H](C)NC(=O)[C@@H]1CSSC[C@H](NC(=O)[C@@H](N)CCCCNC(=O)COCCOCCNC(=O)CCCCCCCCCCCCCCCCCCC(=O)O)C(=O)N[C@@H](CC(N)=O)C(=O)N[C@@H]([C@@H](C)O)C(=O)N[C@@H](C)C(=O)N[C@@H]([C@@H](C)O)C(=O)N1)[C@@H](C)O)C(=O)N1CCC[C@H]1C(=O)N[C@@H](CO)C(=O)N[C@@H](CO)C(=O)N[C@H](C(=O)N[C@@H](CC(N)=O)C(=O)N[C@H](C(=O)NCC(=O)N[C@@H](CO)C(=O)N[C@@H](CC(N)=O)C(=O)N[C@H](C(=O)N[C@@H](Cc1ccc(O)cc1)C(N)=O)[C@@H](C)O)C(C)C)[C@@H](C)O
notes: also called compound 90
B3: N^ε1-[2-[2-[2-[[2-[2-[2-[[(4S)-4-carboxy-4-(19-carboxynonadecanoylamino)butanoyl]amino]ethoxy]ethoxy]acetyl]amino]ethoxy]ethoxy]acetyl]-[Arg17,Pro21,Pro27,Arg34 … (peptide)
peptide: K([AEEA-AEEA-γGlu-C20 diacid])CNTATCATQRLANFLRHSSPNFGAIPSSTNVGRNTY-NH2
modifications: disulfide 2-7; N-terminus assumed
SMILES: CC[C@H](C)[C@H](NC(=O)[C@H](C)NC(=O)CNC(=O)[C@H](Cc1ccccc1)NC(=O)[C@H](CC(N)=O)NC(=O)[C@@H]1CCCN1C(=O)[C@H](CO)NC(=O)[C@H](CO)NC(=O)[C@H](Cc1c[nH]cn1)NC(=O)[C@H](CCCNC(=N)N)NC(=O)[C@H](CC(C)C)NC(=O)[C@H](Cc1ccccc1)NC(=O)[C@H](CC(N)=O)NC(=O)[C@H](C)NC(=O)[C@H](CC(C)C)NC(=O)[C@H](CCCNC(=N)N)NC(=O)[C@H](CCC(N)=O)NC(=O)[C@@H](NC(=O)[C@H](C)NC(=O)[C@@H]1CSSC[C@H](NC(=O)[C@@H](N)CCCCNC(=O)COCCOCCNC(=O)COCCOCCNC(=O)CC[C@H](NC(=O)CCCCCCCCCCCCCCCCCCC(=O)O)C(=O)O)C(=O)N[C@@H](CC(N)=O)C(=O)N[C@@H]([C@@H](C)O)C(=O)N[C@@H](C)C(=O)N[C@@H]([C@@H](C)O)C(=O)N1)[C@@H](C)O)C(=O)N1CCC[C@H]1C(=O)N[C@@H](CO)C(=O)N[C@@H](CO)C(=O)N[C@H](C(=O)N[C@@H](CC(N)=O)C(=O)N[C@H](C(=O)NCC(=O)N[C@@H](CCCNC(=N)N)C(=O)N[C@@H](CC(N)=O)C(=O)N[C@H](C(=O)N[C@@H](Cc1ccc(O)cc1)C(N)=O)[C@@H](C)O)C(C)C)[C@@H](C)O
notes: also called compound 95
B4: N^ε1-[2-[2-[2-(19-carboxynonadecanoylamino)ethoxy]ethoxy]acetyl]-[Arg17,Pro21,Pro27,His34]-h-amylin (peptide)
peptide: K([AEEA-C20 diacid])CNTATCATQRLANFLRHSSPNFGAIPSSTNVGHNTY-NH2
modifications: disulfide 2-7; N-terminus assumed
SMILES: CC[C@H](C)[C@H](NC(=O)[C@H](C)NC(=O)CNC(=O)[C@H](Cc1ccccc1)NC(=O)[C@H](CC(N)=O)NC(=O)[C@@H]1CCCN1C(=O)[C@H](CO)NC(=O)[C@H](CO)NC(=O)[C@H](Cc1c[nH]cn1)NC(=O)[C@H](CCCNC(=N)N)NC(=O)[C@H](CC(C)C)NC(=O)[C@H](Cc1ccccc1)NC(=O)[C@H](CC(N)=O)NC(=O)[C@H](C)NC(=O)[C@H](CC(C)C)NC(=O)[C@H](CCCNC(=N)N)NC(=O)[C@H](CCC(N)=O)NC(=O)[C@@H](NC(=O)[C@H](C)NC(=O)[C@@H]1CSSC[C@H](NC(=O)[C@@H](N)CCCCNC(=O)COCCOCCNC(=O)CCCCCCCCCCCCCCCCCCC(=O)O)C(=O)N[C@@H](CC(N)=O)C(=O)N[C@@H]([C@@H](C)O)C(=O)N[C@@H](C)C(=O)N[C@@H]([C@@H](C)O)C(=O)N1)[C@@H](C)O)C(=O)N1CCC[C@H]1C(=O)N[C@@H](CO)C(=O)N[C@@H](CO)C(=O)N[C@H](C(=O)N[C@@H](CC(N)=O)C(=O)N[C@H](C(=O)NCC(=O)N[C@@H](Cc1c[nH]cn1)C(=O)N[C@@H](CC(N)=O)C(=O)N[C@H](C(=O)N[C@@H](Cc1ccc(O)cc1)C(N)=O)[C@@H](C)O)C(C)C)[C@@H](C)O
notes: also called compound 91

Numbered stars: 1 amine (or outer) side, 2 acyl side, 3 side chain; on linkers, the order of the positions; unused ones are H or OH. Bridge positions count the residues as written; N and C are the ends. Side chains are listed from the residue outwards. Ends that are not written are not given here. * marks the point of attachment. C20 diacid = O=C(O)CCCCCCCCCCCCCCCCCCC(=O)*; γGlu = O=C(O)[C@H](CCC(=O)[*:2])N[*:1]; AEEA = NCCOCCOCC(=O)O

In the first assay the target is T1, rat calcitonin receptor. Nature of the assay: ratio IC50 rat calcitonin receptor / IC50 rat amylin receptor (reference).
For the molecule B1, the “Ratio rCT/rAmylin binding” value stood at 45.6.
In the case of B2, the “Ratio rCT/rAmylin binding” value is 74.1.
For B3, the “Ratio rCT/rAmylin binding” value turned out to be 71.3.
Take B4: the “Ratio rCT/rAmylin binding” value turned out to be 76.3.

The next assay addresses T2, human calcitonin receptor. Nature of the assay: ratio IC50 human calcitonin receptor / IC50 human amylin receptor (reference). The method, then: The resulting pellet was resuspended, homogenized and centrifuged (20.000 rpm, 15 min) in a buffer containing 20 mM Na-HEPES and 0.1 mM EDTA (pH 7.4, buffer 2). The resulting pellet was resuspended in buffer 2 and protein concentration was measured (BCA protein Assay, Pierce). The homogenate was kept cold during the whole procedure. The membranes were kept at −80° C. until use. The assay was performed in a 384 well Optiplate (PerkinElmer) in a total volume of 40 ul. Membranes were mixed with SPA beads. Final concentration of membranes 35 ng/μL final and SPA beads was 0.05 mg/well. Test-compounds were dissolved in DMSO and further diluted in assay buffer (50 mM Hepes, pH 7.4, 1 mM CaCl2, 5 mM MgCl₂, 0.1% OA and 0.02% Tween20). […] The final mixture was incubated with shaking at 400 rpm for 120 min at 25° C. prior to centrifugation (1500 rpm, 10 min). Samples were analyzed on TopCounter™ (Packard). The IC₅₀ was calculated using (one site binding competition analysis) GraphPad Prism5 as a measure of receptor affinity.
Membranes were prepared in the following way; the cells were rinsed with PBS and incubated with Versene for approximately 5 min before harvesting. The cells were flushed with PBS and the cell-suspension was centrifuged for 5 min at 1000 rpm. Cells were homogenized (Ultrathurrax) in a buffer containing 20 mM Na-HEPES and 10 mM EDTA (pH 7.4) and centrifuged at 20.000 rpm for 15 min. The resulting pellet was resuspended, homogenized and centrifuged (20.000 rpm, 15 min) in a buffer containing 20 mM Na-HEPES and 0.1 mM EDTA (pH 7.4, buffer 2). The resulting pellet was resuspended in buffer 2 and protein concentration was measured (BCA protein Assay, Pierce). The homogenate was kept cold during the whole procedure. The membranes were kept at −80° C. until use. Assay was performed in a 384 well Optiplate (PerkinElmer) in a total volume of 40 ul. Membranes were mixed with SPA beads.
Regarding B1, the “Ratio hCT/hAmylin binding” value turned out to be 35.6.
Regarding B2, the “Ratio hCT/hAmylin binding” value came out at 42.2.
As to B3, the “Ratio hCT/hAmylin binding” value worked out at 63.4.
Turning to B4, the “Ratio hCT/hAmylin binding” value turned out to be 101.

The target of the next assay is T1, rat calcitonin receptor. Nature of the assay: SPA competition with 125I-calcitonin, membranes of BHK cells with rat calcitonin receptor (Assay VIII).
Usually IC50 stands for the concentration at which inhibition is half-maximal. For B1, the IC50 amounted to 94.5 nM.
In the case of B2, the IC50 was found to be 18.2 nM.
Regarding B3, the IC50 came to 388 nM.
For the molecule B4, the IC50 turned out to be 29.4 nM.

Another assay concerns the target T3, rat amylin receptor (rat calcitonin …). Nature of the assay: SPA competition with 125I-rat amylin, membranes of BHK cells with rat calcitonin receptor + rat RAMP3 (Assay VI).
For B1, the IC50 was 2.07 nM.
B2: the IC50 amounted to 0.246 nM.
Turning to B3, the IC50 came out at 5.45 nM.
As for B4, the IC50 was determined as 0.386 nM.

The values above are taken from patent US20140087995A1 (published 2014).
